Measured values: patent US20220411483A1 (Chugai, published 2022)

T1: human FcγRIIb extracellular domain with C-terminal His tag (human, UniProt P31994 43-217)
T1 construct: extracellular domain; also called FcgRIIb
T1 sequence (looked up): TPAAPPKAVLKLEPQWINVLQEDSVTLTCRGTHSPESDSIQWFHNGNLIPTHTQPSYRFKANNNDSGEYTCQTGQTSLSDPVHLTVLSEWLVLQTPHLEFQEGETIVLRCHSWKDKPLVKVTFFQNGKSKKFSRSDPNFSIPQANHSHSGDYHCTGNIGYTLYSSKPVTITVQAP

T2: human FcγRIIa R type extracellular domain with C-terminal His tag (human, UniProt P12318 34-217)
T2 construct: extracellular domain; also called FcgRIIaR
T2 sequence (looked up): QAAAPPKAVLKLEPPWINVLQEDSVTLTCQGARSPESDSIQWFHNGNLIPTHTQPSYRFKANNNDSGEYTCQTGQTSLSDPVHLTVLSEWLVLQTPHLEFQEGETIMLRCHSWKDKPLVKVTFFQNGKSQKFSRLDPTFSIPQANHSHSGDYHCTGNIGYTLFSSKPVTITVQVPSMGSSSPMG

T3: human FcγRIIa H type extracellular domain with C-terminal His tag (human, UniProt P12318 34-217)
T3 construct: extracellular domain; also called FcgRIIaH
T3 sequence (looked up): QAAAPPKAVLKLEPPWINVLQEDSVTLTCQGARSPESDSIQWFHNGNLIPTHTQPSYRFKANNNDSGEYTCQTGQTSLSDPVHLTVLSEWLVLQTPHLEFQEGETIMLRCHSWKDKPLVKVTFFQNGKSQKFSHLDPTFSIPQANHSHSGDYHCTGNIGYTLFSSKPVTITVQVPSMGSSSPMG


Tests used:
[1] = target: T1, human FcγRIIb extracellular domain with …; experiment: SPR, antibody captured, FcgR analyte
[2] = target: T4, human FcγRIa extracellular domain with C-terminal His tag (human, UniProt P12314 16-292); experiment: SPR, antibody captured, FcgR analyte
T4 construct: Whole entry named; also called FcgRIa
T4 sequence (P12314 16-292): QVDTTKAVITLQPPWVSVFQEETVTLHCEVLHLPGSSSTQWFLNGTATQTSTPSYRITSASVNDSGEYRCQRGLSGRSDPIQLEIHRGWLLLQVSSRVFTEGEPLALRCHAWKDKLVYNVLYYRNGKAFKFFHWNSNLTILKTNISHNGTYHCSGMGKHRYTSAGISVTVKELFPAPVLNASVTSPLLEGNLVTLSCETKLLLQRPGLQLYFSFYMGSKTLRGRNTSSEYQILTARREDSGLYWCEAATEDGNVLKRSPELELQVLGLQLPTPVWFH

[3] = target: T2, human FcγRIIa R type extracellular …; experiment: SPR, antibody captured, FcgR analyte
[4] = target: T5, human FcγRIIIa V type extracellular domain with C-terminal His tag (human, UniProt P08637 17-208); experiment: SPR, KD of IL6R-G1d/IL6R-L divided by KD of variant
T5 construct: extracellular domain; also called FcgRIIIaV
T5 sequence (P08637 17-208 F176V): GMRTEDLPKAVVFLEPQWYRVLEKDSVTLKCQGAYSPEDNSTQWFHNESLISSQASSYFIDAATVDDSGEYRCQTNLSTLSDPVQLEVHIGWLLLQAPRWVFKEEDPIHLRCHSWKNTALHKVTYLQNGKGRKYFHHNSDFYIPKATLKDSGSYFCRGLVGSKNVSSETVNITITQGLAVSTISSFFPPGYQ

[5] = target: T1, human FcγRIIb extracellular domain with …; experiment: as above
[6] = target: T3, human FcγRIIa H type extracellular …; experiment: as above
[7] = target: T4, human FcγRIa extracellular domain with …; experiment: as above
[8] = target: T2, human FcγRIIa R type extracellular …; experiment: as above

| Binder | Kd [1] [nM] | Kd [2] [nM] | Kd [3] [nM] | Relative FcgRIIIaV-binding Activity [4] | Relative FcgRIIb-binding Activity [5] | Relative FcgRIIaH-binding Activity [6] | Relative FcgRIa-binding Activity [7] | Relative FcgRIIaR-binding Activity [8] |
| --- | --- | --- | --- | --- | --- | --- | --- | --- |
| IL6R-P763/IL6R-L (antibody, human IgG1, kappa) heavy: QVQLQESGPGLVKPSETLSLTCAVSGHSISHDHAWSWVRQPPGEGLEWIGFISYSGITNYNPSLQGRVTISRDNSKNTLYLQMNSLRAEDTAVYYCARSLARTTAMDYWGEGTLVTVSSASTKGPSVFPLAPSSKSTSGGTAALGCLVKDYFPEPVTVSWNSGALTSGVHTFPAVLQSSGLYSLSSVVTVPSSSLGTQTYICNVNHKPSNTKVDKKVEPKSCDKTHTCPPCPAPELLGGDSVFLFPPKPKDTLMISRTPEVTCVVVDVAEEDGEVKFNWYVDGVEVHNAKTKPREEQYNSTYRVVSVLTVLHQDWLNGKEYKCKVSNKALPAPIEKTISKAKGQPREPQVYTLPPSRDELTKNQVSLTCLVKGFYPSDIAVEWESNGQPENNYKTTPPVLDSDGSFFLYSKLTVDKSRWQQGNVFSCSVMHEALHNHYTQKSLSLSP light: not shown | 100 | 0.73 | 1600 | 0.014 | 21 | 0.034 | 0.438 | 0.69 |
| IL6R-P766/IL6R-L (antibody, human IgG1, kappa) heavy: QVQLQESGPGLVKPSETLSLTCAVSGHSISHDHAWSWVRQPPGEGLEWIGFISYSGITNYNPSLQGRVTISRDNSKNTLYLQMNSLRAEDTAVYYCARSLARTTAMDYWGEGTLVTVSSASTKGPSVFPLAPSSKSTSGGTAALGCLVKDYFPEPVTVSWNSGALTSGVHTFPAVLQSSGLYSLSSVVTVPSSSLGTQTYICNVNHKPSNTKVDKKVEPKSCDKTHTCPPCPAPELLGGDSVFLFPPKPKDTLMISRTPEVTCVVVDVAEEDGEVKFNWYVDGVEVHNAKTKPREEQYNSTYRVVSVLTVLHQDWLNGKEYKCKVSNKGLPSSIEKTISKAKGQPREPQVYTLPPSRDELTKNQVSLTCLVKGFYPSDIAVEWESNGQPENNYKTTPPVLDSDGSFFLYSKLTVDKSRWQQGNVFSCSVMHEALHNHYTQKSLSLSP light: not shown | 290 | 0.97 | 2200 | 0.008 | 7.2 | 0.025 | 0.33 | 0.5 |
| IL6R-P767/IL6R-L (antibody, human IgG1, kappa) heavy: QVQLQESGPGLVKPSETLSLTCAVSGHSISHDHAWSWVRQPPGEGLEWIGFISYSGITNYNPSLQGRVTISRDNSKNTLYLQMNSLRAEDTAVYYCARSLARTTAMDYWGEGTLVTVSSASTKGPSVFPLAPSSKSTSGGTAALGCLVKDYFPEPVTVSWNSGALTSGVHTFPAVLQSSGLYSLSSVVTVPSSSLGTQTYICNVNHKPSNTKVDKKVEPKSCDKTHTCPPCPAPELLGGDSVFLFPPKPKDTLMISRTPEVTCVVIDVSEEDGEVKFNWYVDGVEVHNAKTKPREEQYNSTYRVVSVLTVLHQDWLNGKEYKCKVSNKGLPSSIEKTISKAKGQPREPQVYTLPPSRDELTKNQVSLTCLVKGFYPSDIAVEWESNGQPENNYKTTPPVLDSDGSFFLYSKLTVDKSRWQQGNVFSCSVMHEALHNHYTQKSLSLSP light: not shown | 120 | 5.4 | 2800 | 0.005 | 17.5 | 0.02 | 0.059 | 0.39 |
| IL6R-P765/IL6R-L (antibody, human IgG1, kappa) heavy: QVQLQESGPGLVKPSETLSLTCAVSGHSISHDHAWSWVRQPPGEGLEWIGFISYSGITNYNPSLQGRVTISRDNSKNTLYLQMNSLRAEDTAVYYCARSLARTTAMDYWGEGTLVTVSSASTKGPSVFPLAPSSKSTSGGTAALGCLVKDYFPEPVTVSWNSGALTSGVHTFPAVLQSSGLYSLSSVVTVPSSSLGTQTYICNVNHKPSNTKVDKKVEPKSCDKTHTCPPCPAPELLGGDSVFLFPPKPKDTLMISRTPEVTCVVIDVAHEDGEVKFNWYVDGVEVHNAKTKPREEQYNSTYRVVSVLTVLHQDWLNGKEYKCKVSNKALPAPIEKTISKAKGQPREPQVYTLPPSRDELTKNQVSLTCLVKGFYPSDIAVEWESNGQPENNYKTTPPVLDSDGSFFLYSKLTVDKSRWQQGNVFSCSVMHEALHNHYTQKSLSLSP light: not shown | 53 | 1.8 | 2100 | 0.008 | 39.6 | 0.028 | 0.178 | 0.52 |
| IL6R-P764/IL6R-L (antibody, human IgG1, kappa) heavy: QVQLQESGPGLVKPSETLSLTCAVSGHSISHDHAWSWVRQPPGEGLEWIGFISYSGITNYNPSLQGRVTISRDNSKNTLYLQMNSLRAEDTAVYYCARSLARTTAMDYWGEGTLVTVSSASTKGPSVFPLAPSSKSTSGGTAALGCLVKDYFPEPVTVSWNSGALTSGVHTFPAVLQSSGLYSLSSVVTVPSSSLGTQTYICNVNHKPSNTKVDKKVEPKSCDKTHTCPPCPAPELLGGDSVFLFPPKPKDTLMISRTPEVTCVVIDVSEEDGEVKFNWYVDGVEVHNAKTKPREEQYNSTYRVVSVLTVLHQDWLNGKEYKCKVSNKALPAPIEKTISKAKGQPREPQVYTLPPSRDELTKNQVSLTCLVKGFYPSDIAVEWESNGQPENNYKTTPPVLDSDGSFFLYSKLTVDKSRWQQGNVFSCSVMHEALHNHYTQKSLSLSP light: not shown | 50 | 3.7 | 2100 | 0.006 | 42 | 0.026 | 0.086 | 0.52 |

Now from value to binder:

| Kd [1] [nM] | Kd [2] [nM] | Kd [3] [nM] | Relative FcgRIIIaV-binding Activity [4] | Relative FcgRIIb-binding Activity [5] | Relative FcgRIIaH-binding Activity [6] | Relative FcgRIa-binding Activity [7] | Relative FcgRIIaR-binding Activity [8] | Binder |
| --- | --- | --- | --- | --- | --- | --- | --- | --- |
| 74 | 12 | 2900 | 0.006 | 28.4 | 0.007 | 0.027 | 0.38 | IL6R-P769/IL6R-L (antibody, human IgG1, kappa) heavy: QVQLQESGPGLVKPSETLSLTCAVSGHSISHDHAWSWVRQPPGEGLEWIGFISYSGITNYNPSLQGRVTISRDNSKNTLYLQMNSLRAEDTAVYYCARSLARTTAMDYWGEGTLVTVSSASTKGPSVFPLAPSSKSTSGGTAALGCLVKDYFPEPVTVSWNSGALTSGVHTFPAVLQSSGLYSLSSVVTVPSSSLGTQTYICNVNHKPSNTKVDKKVEPKSCDKTHTCPPCPAPELLGGDSVFLFPPKPKDTLMISRTPEVTCVVIDVSHEDGEVKFNWYVDGVEVHNAKTKPREEQYNSTYRVVSVLTVLHQDWLNGKEYKCKVSNKALPAPIEKTISKAKGQPREPQVYTLPPSRDELTKNQVSLTCLVKGFYPSDIAVEWESNGQPENNYKTTPPVLDSDGSFFLYSKLTVDKSRWQQGNVFSCSVMHEALHNHYTQKSLSLSP light: not shown |
| 170 | 3.3 | 2800 | 0.008 | 12.4 | 0.027 | 0.097 | 0.39 | IL6R-P768/IL6R-L (antibody, human IgG1, kappa) heavy: QVQLQESGPGLVKPSETLSLTCAVSGHSISHDHAWSWVRQPPGEGLEWIGFISYSGITNYNPSLQGRVTISRDNSKNTLYLQMNSLRAEDTAVYYCARSLARTTAMDYWGEGTLVTVSSASTKGPSVFPLAPSSKSTSGGTAALGCLVKDYFPEPVTVSWNSGALTSGVHTFPAVLQSSGLYSLSSVVTVPSSSLGTQTYICNVNHKPSNTKVDKKVEPKSCDKTHTCPPCPAPELLGGDSVFLFPPKPKDTLMISRTPEVTCVVIDVAHEDGEVKFNWYVDGVEVHNAKTKPREEQYNSTYRVVSVLTVLHQDWLNGKEYKCKVSNKGLPSSIEKTISKAKGQPREPQVYTLPPSRDELTKNQVSLTCLVKGFYPSDIAVEWESNGQPENNYKTTPPVLDSDGSFFLYSKLTVDKSRWQQGNVFSCSVMHEALHNHYTQKSLSLSP light: not shown |
